Results as given in PMC10183053 (Journal of biomolecular structure & dynamics, 2022).
Like-named read-outs stand apart in the source and are kept apart here.

B1: human Hsp90α_293–714_W320A mutant (domain or fragment)
chain: not shown
B2: human Hsp90α_293–699 (wild type Hsp90α middle/C-terminal domain) (domain or fragment)
chain: not shown

How the values were obtained:
[1] = target: the molecule itself; experiment: crystal structure
[2] = target: the molecule itself; experiment: crystal structure; remark: listed apart in the source

Protein | stoichiometry N [1] | stoichiometry N [2]
B1 | 2 | 
B2 |  | 6
